According to the RNAGym collection of RNA variant scans (doi:10.7554/elife.80360):

B1: CPEB3 Ribozyme (parent)
chain: GGGGGCCACAGCAGAAGCGUUCACGUCGCGGCCCCUGUCAGAUUCUGGUGAAUCUGCGAAUUCUGCUGU

Variants of: B1
Assay: self-cleavage, relative activity (ratio to wild type); higher = more cleavage; co-transcriptional

| Variant | self-cleavage |
| --- | --- |
| GGGGGCCACAGCAGAAGCGUUCACGUCGCGGCCCCUGUCAGAUUCUGUUGAAGCUGCGAAUUCUGCUGU [G48U U53G] | 0.94 |
| GGGGGCCACAGCAGAAGCGUUCACGUCGCGGCCCCUGUCAGAUUCUGGAGAAGCUGCGAAUUCUGCUGU [U49A U53G] | 0.95 |
| GGGGGCCACAGCAGAAGCGUUCACGUCGCGGCCCCUGUCAGAUUCUGGAGAAACUGCGAAUUCUGCUGU [U49A U53A] | 0.984 |
| GGGGGCCACAGCAGAAGCGUUCACGUCGCGGCCCCUGUCAGAUUCUGUUGAAUCUGCGAAUUCUUCUGU [G48U G65U] | 0.909 |
| GGGGGCCACAGCAGAAGCGUUCACGUCGCGGCCCCUGUCAGAUUCUGUUGAAUCUGCGAAUUCUCCUGU [G48U G65C] | 0.798 |
| GGGGGCCACAGCAGAAGCGUUCACGUCGCGGCCCCUGUCAGAUUCUGGAGAAUCUGCGAAUUGUGCUGU [U49A C63G] | 0.878 |
| GGGGGCCACAGCAGAAGCGUUCACGUCGCGGCCCCUGUCAGAUUCUGGAGAAUCUGCGAAUUAUGCUGU [U49A C63A] | 0.943 |
| GGGGGCCACAGCAGAAGCGUUCACGUCGCGGCCCCUGUCAGAUUCUGUUGAAUCUGCGAAUUCAGCUGU [G48U U64A] | 0.96 |
| GGGGGCCACAGCAGAAGCGUUCACGUCGCGGCCCCUGUCAGAUUCUGUUGAAUCUGCGAAUUCGGCUGU [G48U U64G] | 0.955 |
| GGGGGCCACAGCAGAAGCGUUCACGUCGCGGCCCCUGUCAGAUUCUGUUGAAUCUGCGAAUUCCGCUGU [G48U U64C] | 0.876 |
| GGGGGCCACAGCAGAAGCGUUCACGUCGCGGCCCCUGUCAGAUUCUGGAGAAUCUGCGAAUUCUGCAGU [U49A U67A] | 1.05 |
| GGGGGCCACAGCAGAAGCGUUCACGUCGCGGCCCCUGUCAGAUUCUGUUGAAUCGGCGAAUUCUGCUGU [G48U U55G] | 0.968 |
| GGGGGCCACAGCAGAAGCGUUCACGUCGCGGCCCCUGUCAGAUUCUGUUGAAUCCGCGAAUUCUGCUGU [G48U U55C] | 0.977 |
| GGGGGCCACAGCAGAAGCGUUCACGUCGCGGCCCCUGUCAGAUUCUGGCGUAUCUGCGAAUUCUGCUGU [U49C A51U] | 0.887 |
| GGGGGCCACAGCAGAAGCGUUCACGUCGCGGCCCCUGUCAGAUUCUGGCGCAUCUGCGAAUUCUGCUGU [U49C A51C] | 0.981 |
| GGGGGCCACAGCAGAAGCGUUCACGUCGCGGCCCCUGUCAGAUUCUGGAGAAUCUGCGAAUUCUACUGU [U49A G65A] | 0.934 |
| GGGGGCCACAGCAGAAGCGUUCACGUCGCGGCCCCUGUCAGAUUCUGGAGAAUCUGCGAAUUCUCCUGU [U49A G65C] | 0.476 |
| GGGGGCCACAGCAGAAGCGUUCACGUCGCGGCCCCUGUCAGAUUCUGUUGAAUCUGCGAAUUCUGCUGA [G48U U69A] | 1.01 |
| GGGGGCCACAGCAGAAGCGUUCACGUCGCGGCCCCUGUCAGAUUCUGUUGAAUCUGCGAAUUCUGCUGG [G48U U69G] | 1.05 |
| GGGGGCCACAGCAGAAGCGUUCACGUCGCGGCCCCUGUCAGAUUCUGUUGAAUCUGCGAAUUCUGCUGC [G48U U69C] | 1.04 |

| Variant | self-cleavage |
| --- | --- |
| GGGGGCCACAGCAGAAGCGUUCACGUCGCGGCCCCUGUCAGAUUCUGGAGAAUCUGCGCAUUCUGCUGU [U49A A59C] | 0.798 |
| GGGGGCCACAGCAGAAGCGUUCACGUCGCGGCCCCUGUCAGAUUCUGGAGAAUCUGCGGAUUCUGCUGU [U49A A59G] | 0.995 |
| GGGGGCCACAGCAGAAGCGUUCACGUCGCGGCCCCUGUCAGAUUCUGGAGAAUCUGCGUAUUCUGCUGU [U49A A59U] | 0.85 |
| GGGGGCCACAGCAGAAGCGUUCACGUCGCGGCCCCUGUCAGAUUCUGGAAAAUCUGCGAAUUCUGCUGU [U49A G50A] | 0.995 |
| GGGGGCCACAGCAGAAGCGUUCACGUCGCGGCCCCUGUCAGAUUCUGGACAAUCUGCGAAUUCUGCUGU [U49A G50C] | 1.02 |
| GGGGGCCACAGCAGAAGCGUUCACGUCGCGGCCCCUGUCAGAUUCUGGCGAAUCUGCGCAUUCUGCUGU [U49C A59C] | 0.764 |
| GGGGGCCACAGCAGAAGCGUUCACGUCGCGGCCCCUGUCAGAUUCUGGCGAAUCUGCGGAUUCUGCUGU [U49C A59G] | 0.985 |
| GGGGGCCACAGCAGAAGCGUUCACGUCGCGGCCCCUGUCAGAUUCUGGCGAAUCUGCGUAUUCUGCUGU [U49C A59U] | 0.811 |
| GGGGGCCACAGCAGAAGCGUUCACGUCGCGGCCCCUGUCAGAUUCUGGAGAAUCUGCGAAUCCUGCUGU [U49A U62C] | 0.825 |
| GGGGGCCACAGCAGAAGCGUUCACGUCGCGGCCCCUGUCAGAUUCUGGAGAAUCUGCGAAUACUGCUGU [U49A U62A] | 0.99 |
| GGGGGCCACAGCAGAAGCGUUCACGUCGCGGCCCCUGUCAGAUUCUGUUGAAUCUGCGAAUUCUGCGGU [G48U U67G] | 1.05 |
| GGGGGCCACAGCAGAAGCGUUCACGUCGCGGCCCCUGUCAGAUUCUGUUGAAUCUGCGAAUUCUGCCGU [G48U U67C] | 1 |
| GGGGGCCACAGCAGAAGCGUUCACGUCGCGGCCCCUGUCAGAUUCUGUUGAAUCUGCGAAUUCUGCAGU [G48U U67A] | 1.01 |
| GGGGGCCACAGCAGAAGCGUUCACGUCGCGGCCCCUGUCAGAUUCUGGAGAAUCUGCGACUUCUGCUGU [U49A A60C] | 0.394 |
| GGGGGCCACAGCAGAAGCGUUCACGUCGCGGCCCCUGUCAGAUUCUGGAGAAUCUGCGAUUUCUGCUGU [U49A A60U] | 0.582 |
| GGGGGCCACAGCAGAAGCGUUCACGUCGCGGCCCCUGUCAGAUUCUGGAGAAUCUGCGAGUUCUGCUGU [U49A A60G] | 0.915 |
| GGGGGCCACAGCAGAAGCGUUCACGUCGCGGCCCCUGUCAGAUUCUGUUGAAUCUUCGAAUUCUGCUGU [G48U G56U] | 0.994 |
| GGGGGCCACAGCAGAAGCGUUCACGUCGCGGCCCCUGUCAGAUUCUGUUGAAUCUCCGAAUUCUGCUGU [G48U G56C] | 0.865 |
| GGGGGCCACAGCAGAAGCGUUCACGUCGCGGCCCCUGUCAGAUUCUGUUGAAUCUACGAAUUCUGCUGU [G48U G56A] | 0.945 |
